Data taken from patent US20240384250A1, “FIBROBLAST GROWTH FACTOR 23 MODULATING COMPOUNDS” (THE UAB RESEARCH FOUNDATION, priority 2021, published 2024).
“Also recorded” adds a separate entry of the source.

What was measured:
FGF23 binding to FGFR2c = biological target: T1, FGF23 binding to FGFR2c (Homo sapiens, UniProt P21802); experiment: Pull-down of FGF23 with Fc-FGFR on protein A/G beads with sKL, heparin or PBS; settings: with heparin, or alone
T1 construct: Fc-coupled FGFR ectodomains were immobilized on protein A/G beads; purchased R&D Systems 2604FG025/CF or 2629FG025/CF; 712FR050
Method: To study the interaction between Fc-tagged FGFR isoforms (Fc-FGFR), FGF isoforms, and sKL, immunoprecipitation studies were conducted. Protein A beads (6501, BioVision) and protein G beads (6511, BioVision) were used at 25 μl of a 50% stock slurry per sample in a total bead volume of 50 μl. Beads were washed 5× in activity buffer (50 mM Tris [pH 7.4], 200 mM NaCl, 0.01% Tween 20). Bead spin-down assays were all performed for 2 minutes at 5000 g. Beads were resuspended in 1 ml of activity buffer in a 1.5-ml snap cap tube. One microgram of Fc-FGFR1 to 4 was incubated with the beads for 1 hour on a bead rotator. Control samples were incubated with 2 μg of anti-FGF antibody instead of Fc-FGFR. Beads were then pelleted at 5000 g for 2 minutes and washed 5× with activity buffer. Beads were resuspended and incubated with different combinations of 500 ng of FGF, 1 μg of sKL, 1.6 United States Pharmacopeia (USP) units of heparin, or phosphate-buffered saline (PBS). Beads were incubated for 1 hour on a tube rotator, and beads were pelleted and washed as before. One hundred microliters of 1× Laemmli sample buffer (1610737, Bio-Rad) with 1.42 M 2-mercaptoethanol was added, and samples were boiled for 5 minutes. Samples were analyzed using SDS-PAGE and Western blotting.
The sample (20 μl) was loaded onto Mini-PROTEAN TGX Precast Gel 4-20% for experiments with <9 samples (4568094, Bio-Rad) or Criterion TGX Precast Gel 4-20% (5678094, Bio-Rad) for experiments with >9 samples. Gels were run in 1× Tris/Glycine/SDS buffer (1610732, Bio-Rad) at 150 V and stopped when the sample dye reached the end of the gel. Gels were removed and electrotransferred via a semi-dry cassette (1703940, Bio-Rad) in I× Tris/Glycine buffer (1610734, Bio-Rad) with 20% methanol. Gels were transferred onto polyvinylidene diflouride membranes (IPVH00010, Millipore) at 20 V for 1 hour. Membranes were then blocked in 5% dried milk with 0.5% Tween 20 diluted in Tris-buffered saline (TBST; pH 7.5) for 1 hour and probed with antibodies against specific antigens at 1:1000 in TBST with 5% dried milk. Blots were washed 3× for 5 minutes in TBST and probed with HRP-coupled secondary antibodies against specific species at 1:10,000 in TBST with 5% dried milk. Membranes were imaged on the SRX-101A X-ray film developer (Konica Minolta).

FGFR4 = biological target: T2, FGFR4 (Homo sapiens, UniProt P22455); experiment: Plate-based binding assay, FGFR4 coated, FLAG-sKL detected with anti-FLAG HRP; settings: 40 ng FGFR4 coated, 80 ng FLAG-sKL, compared with FGFR1c
T2 construct: Fc-FGFR4 protein (human ectodomain) was immobilized; purchased R&D Systems 685FR050
T2 sequence (P22455 22-369 limits assumed): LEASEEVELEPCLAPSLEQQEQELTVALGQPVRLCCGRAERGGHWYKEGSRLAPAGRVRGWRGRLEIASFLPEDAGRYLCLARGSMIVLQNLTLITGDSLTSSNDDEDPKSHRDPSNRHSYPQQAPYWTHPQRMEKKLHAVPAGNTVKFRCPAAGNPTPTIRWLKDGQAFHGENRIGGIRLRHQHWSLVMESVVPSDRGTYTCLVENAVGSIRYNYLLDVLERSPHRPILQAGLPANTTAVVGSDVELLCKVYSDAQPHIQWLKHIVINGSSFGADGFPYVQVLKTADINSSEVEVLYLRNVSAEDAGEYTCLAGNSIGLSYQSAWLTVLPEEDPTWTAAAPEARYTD
Method: Proteins were coated on 96-well plates (MaxiSorp; 439454, Thermo Fisher Scientific), and proteins were added to wells in 100 μl of enzyme-linked immunosorbent assay (ELISA) coating buffer (E107, Bethyl Laboratories) with a lid placed overtop and incubated at 4° C. overnight. Plates were washed 5× with 350 μl of assay buffer (50 mM Tris [pH 7.4], 200 mM NaCl, 0.01% Tween 20) on a 50 TS microplate washer (BioTek). Plates were blocked for 1 hour in 200 μl of assay buffer with 0.5% BSA. Plates were washed as before, and proteins were incubated on plates in 100 μl of assay buffer with 0.5% BSA. Proteins or heparin was incubated in orders described in the respective figure legends. Assays using FLAG-tag-based detection were incubated with anti-FLAG coupled to HRP at 1:20,000, and assays using Fc detection were incubated with anti-human Fc coupled to HRP at 1:10,000. […] Reactions were stopped with ELISA stop solution (E115, Bethyl Laboratories) and analyzed using the Synergy HI plate reader (BioTek) at 450 nm wavelength. […] As a control to remove background absorbance values, wells were coated with an equal amount of BSA to match the amount of protein coated in experimental wells and treated the same as experimental wells. […]

[1] = tested on: FGF21 binding to FGFR isoforms 1c, 2c, 3c, 4; experiment: Pull-down and plate binding of FGF21 to FGFR isoforms with sKL or heparin; set-up: species or system human
Method: (§1) To study the interaction between Fc-tagged FGFR isoforms (Fc-FGFR), FGF isoforms, and sKL, immunoprecipitation studies were conducted. Protein A beads (6501, BioVision) and protein G beads (6511, BioVision) were used at 25 μl of a 50% stock slurry per sample in a total bead volume of 50 μl. Beads were washed 5× in activity buffer (50 mM Tris [pH 7.4], 200 mM NaCl, 0.01% Tween 20). Bead spin-down assays were all performed for 2 minutes at 5000 g. Beads were resuspended in 1 ml of activity buffer in a 1.5-ml snap cap tube. One microgram of Fc-FGFR1 to 4 was incubated with the beads for 1 hour on a bead rotator. Control samples were incubated with 2 μg of anti-FGF antibody instead of Fc-FGFR. […] Samples were analyzed using SDS-PAGE and Western blotting.
(§2) Proteins were coated on 96-well plates (MaxiSorp; 439454, Thermo Fisher Scientific), and proteins were added to wells in 100 μl of enzyme-linked immunosorbent assay (ELISA) coating buffer (E107, Bethyl Laboratories) with a lid placed overtop and incubated at 4° C. overnight. […] Reactions were stopped with ELISA stop solution (E115, Bethyl Laboratories) and analyzed using the Synergy HI plate reader (BioTek) at 450 nm wavelength. […] As a control to remove background absorbance values, wells were coated with an equal amount of BSA to match the amount of protein coated in experimental wells and treated the same as experimental wells. […]

FGF23 = biological target: T3, FGF23 (Homo sapiens, UniProt Q9GZV9); experiment: Plate-based binding assay, FGF23 coated, FLAG-sKL detected with anti-FLAG HRP; settings: for binding of FLAG-sKL to coated FGF23 (absorbance at 450 nm): 10 ng FGF coated, 40 ng FLAG-sKL; for binding of FLAG-sKL to coated FGF23 compared with FGFR1c: 20 ng FGF23 coated, 80 ng FLAG-sKL
T3 construct: purchased R&D Systems 2604FG025/CF (human) or 2629FG025/CF (mouse)
T3 sequence (Q9GZV9 25-251): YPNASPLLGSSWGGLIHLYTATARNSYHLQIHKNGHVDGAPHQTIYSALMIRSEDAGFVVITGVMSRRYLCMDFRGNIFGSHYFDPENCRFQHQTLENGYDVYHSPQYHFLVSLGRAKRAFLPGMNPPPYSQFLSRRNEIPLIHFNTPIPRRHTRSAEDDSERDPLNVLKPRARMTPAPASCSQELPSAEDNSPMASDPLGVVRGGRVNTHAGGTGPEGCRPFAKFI
Method: Proteins were coated on 96-well plates (MaxiSorp; 439454, Thermo Fisher Scientific), and proteins were added to wells in 100 μl of enzyme-linked immunosorbent assay (ELISA) coating buffer (E107, Bethyl Laboratories) with a lid placed overtop and incubated at 4° C. overnight. Plates were washed 5× with 350 μl of assay buffer (50 mM Tris [pH 7.4], 200 mM NaCl, 0.01% Tween 20) on a 50 TS microplate washer (BioTek). Plates were blocked for 1 hour in 200 μl of assay buffer with 0.5% BSA. Plates were washed as before, and proteins were incubated on plates in 100 μl of assay buffer with 0.5% BSA. Proteins or heparin was incubated in orders described in the respective figure legends. Assays using FLAG-tag-based detection were incubated with anti-FLAG coupled to HRP at 1:20,000, and assays using Fc detection were incubated with anti-human Fc coupled to HRP at 1:10,000. Plates were washed as above, and 100 μl of 3,3′,5,5′-tetramethylbenzidine (TMB) substrate (E102, Bethyl Laboratories) was added for 15 to 20 minutes until positive wells developed a dark blue color. Reactions were stopped with ELISA stop solution (E115, Bethyl Laboratories) and analyzed using the Synergy HI plate reader (BioTek) at 450 nm wavelength. […] As a control to remove background absorbance values, wells were coated with an equal amount of BSA to match the amount of protein coated in experimental wells and treated the same as experimental wells. To study the effects of sKL on the binding between paracrine FGFs and FGFRs, plates were run as above except coated with paracrine FGFs. Fc-FGFR1 was preincubated with sKL or vehicle for 60 minutes, and then the combination was added to wells and the assay was run as before.

[2] = tested on: isolated adult ventricular cardiac myocytes; settings: previous studies; cited from earlier work
[3] = tested on: FGF19 binding to FGFR isoforms 1c, 2c, 3c, 4; experiment: Pull-down and plate binding of FGF19 to FGFR isoforms with sKL or heparin; set-up: species or system human
Method: as §1, §2

Sequence of FGF19 binding to FGFR isoforms 1c, 2c, 3c, 4 (O95750 25-216): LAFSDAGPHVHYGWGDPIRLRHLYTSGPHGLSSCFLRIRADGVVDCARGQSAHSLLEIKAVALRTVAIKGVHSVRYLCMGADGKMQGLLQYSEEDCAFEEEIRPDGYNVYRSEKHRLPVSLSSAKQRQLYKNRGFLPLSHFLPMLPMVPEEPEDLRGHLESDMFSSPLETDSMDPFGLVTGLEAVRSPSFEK
T1 sequence (P21802 22-377 limits assumed): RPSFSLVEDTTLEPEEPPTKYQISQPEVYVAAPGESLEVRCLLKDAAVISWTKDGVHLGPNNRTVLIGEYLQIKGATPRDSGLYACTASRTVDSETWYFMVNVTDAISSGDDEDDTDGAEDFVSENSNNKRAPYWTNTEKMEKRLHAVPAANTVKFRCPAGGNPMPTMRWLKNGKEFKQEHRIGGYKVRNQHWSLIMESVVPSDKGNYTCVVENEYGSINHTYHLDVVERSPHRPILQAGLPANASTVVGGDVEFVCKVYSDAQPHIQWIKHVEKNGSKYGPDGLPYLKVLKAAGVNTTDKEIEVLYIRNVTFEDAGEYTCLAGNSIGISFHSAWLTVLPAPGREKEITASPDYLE

B1: FGF23: recombinant fibroblast growth factor 23 protein from R&D Systems (protein)
chain: YPDTSPLLGSNWGSLTHLYTATARTSYHLQIHRDGHVDGTPHQTIYSALMITSEDAGSVVITGAMTRRFLCMDLHGNIFGSLHFSPENCKFRQWTLENGYDVYLSQKHHYLVSLGRAKRIFQPGTNPPPFSQFLARRNEVPLLHFYTVRPRRHTRSAEDPPERDPLNVLKPRPRATPVPVSCSRELPSAEEGGPAASDPLGVLRRGRGDARGGAGGADRCRPFPRFV
FGF23 co-precipitation with Fc-FGFR2c (FGF23 binding to FGFR2c): no FGF23 binding was detected

B2: sKL: recombinant soluble α-klotho ectodomain, mouse aa 35-982 and human aa 34-981, FLAG- or Strep/His-tagged, purified from HEK293 cells (protein)
chain: EPGDGAQTWARFSRPPAPEAAGLFQGTFPDGFLWAVGSAAYQTEGGWQQHGKGASIWDTFTHHPLAPPGDSRNASLPLGAPSPLQPATGDVASDSYNNVFRDTEALRELGVTHYRFSISWARVLPNGSAGVPNREGLRYYRRLLERLRELGVQPVVTLYHWDLPQRLQDAYGGWANRALADHFRDYAELCFRHFGGQVKYWITIDNPYVVAWHGYATGRLAPGIRGSPRLGYLVAHNLLLAHAKVWHLYNTSFRPTQGGQVSIALSSHWINPRRMTDHSIKECQKSLDFVLGWFAKPVFIDGDYPESMKNNLSSILPDFTESEKKFIKGTADFFALCFGPTLSFQLLDPHMKFRQLESPNLRQLLSWIDLEFNHPQIFIVENGWFVSGTTKRDDAKYMYYLKKFIMETLKAIKLDGVDVIGYTAWSLMDGFEWHRGYSIRRGLFYVDFLSQDKMLLPKSSALFYQKLIEKNGFPPLPENQPLEGTFPCDFAWGVVDNYIQVDTTLSQFTDLNVYLWDVHHSKRLIKVDGVVTKKRKSYCVDFAAIQPQIALLQEMHVTHFRFSLDWALILPLGNQSQVNHTILQYYRCMASELVRVNITPVVALWQPMAPNQGLPRLLARQGAWENPYTALAFAEYARLCFQELGHHVKLWITMNEPYTRNMTYSAGHNLLKAHALAWHVYNEKFRHAQNGKISIALQADWIEPACPFSQKDKEVAERVLEFDIGWLAEPIFGSGDYPWVMRDWLNQRNNFLLPYFTEDEKKLIQGTFDFLALSHYTTILVDSEKEDPIKYNDYLEVQEMTDITWLNSPSQVAVVPWGLRKVLNWLKFKYGDLPMYIISNGIDDGLHAEDDQLRVYYMQNYINEALKAHILDGINLCGYFAYSFNDRTAPRFGLYRYAADQFEPKASMKHYRKIIDSNGFPGPETLERFCPEEFTVCTECSFFHTRKS
modifications: left off: small tags and cut ends
notes: recombinant soluble α-klotho ectodomain, mouse aa 35-982 and human aa 34-981, FLAG- or Strep/His-tagged, purified from HEK293 cells
binding of FLAG-sKL to coated FGFR4 (FGFR4): to a lesser extent | binding of FLAG-sKL to coated FGFR4 (FGFR4; listed as FLAG-sKL): to a lower extent | binding of FGF21 to any of the FGFR isoforms [1]: did not mediate binding; also recorded: did not lead to complex formation; also recorded: did not bind any of the FGFR isoforms | binding of FLAG-sKL to coated FGF23 (absorbance at 450 nm) (FGF23): bound FGF23 | binding of FLAG-sKL to coated FGF23 (absorbance at 450 nm) (FGF23; listed as FLAG-sKL): only FGF23 bound FLAG-sKL | binding of FLAG-sKL to coated FGF23 compared with FGFR1c (FGF23): to a lesser extent | binding of FLAG-sKL to coated FGF23 compared with FGFR1c (FGF23; listed as FLAG-sKL): to a lower extent | FGF23 binding affinity, protein from HEK293 lysates instead of supernatants (FGF23; 100 ng FGF23 coated, normalized to sKL amounts): higher | FGF23-induced calcium mishandling, altered contractility, proarrhythmic calcium release [2]: can be blocked | binding of FGF19 to any of the FGFR isoforms [3]: did not mediate binding; also recorded: did not lead to complex formation; also recorded: did not bind any of the FGFR isoforms
